{"source": "patent US20160272980", "tested_on": "PTRI20 meganuclease (engineered, pCLS17038) (artificial)", "test": "cell_activity", "conditions": "P. tricornutum; 6.9% with SCTREX2 (p124); HGT up to 0.197% with donor (p171); empty vector 0", "data": [{"sequence": "GTTTTACGTTGTACGACGTCTAGC (double strand) [PTRI20 target]", "values": [{"measurement": "activity (% mutagenesis)", "result": 0.032}]}]}
